Results taken from PMC3959856.

Molecular target: SpyTag-MBP (Streptococcus pyogenes)
Assay: covalent adduct formation by SDS-PAGE densitometry

Substance: full-length SpyCatcher (as used in the reaction assay of Fig. 4b) (domain or fragment)
- percent covalent complex formation after 1 min: 40%
- percent covalent complex formation after 10 min: 65%
